Values of other authors, collected in paper PMC5176006.
pKd: −log10 of the molar value.

Biological target: IscU (Escherichia coli) (UniProt P0ACD4)
Sequence of UniProt P0ACD4 (P0ACD4 whole entry): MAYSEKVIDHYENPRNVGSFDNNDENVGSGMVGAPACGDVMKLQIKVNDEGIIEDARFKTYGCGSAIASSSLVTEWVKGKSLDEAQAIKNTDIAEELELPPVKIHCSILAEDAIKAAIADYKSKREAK

**Q.** With IscS (from UniProt P0A6B7) as the substance, how does the pKd read?
**A.** The pKd was 6.00.
